Assay results published in publication PMC2823527 (The Journal of Biological Chemistry, 2009).
Read-outs that look alike come from different tables or passages of the source.

T1: Sgf11 full-length, released from GST (S. cerevisiae, UniProt Q03067 1-99)
T1 sequence (looked up): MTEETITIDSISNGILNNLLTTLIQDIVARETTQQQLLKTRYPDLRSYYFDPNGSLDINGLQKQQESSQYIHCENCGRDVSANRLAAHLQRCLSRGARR

T2: GST-Sac3 753-805 / Cdc31 complex (yeast, UniProt P46674 753-805; P06704 1-161)
T2 sequence (looked up) 1: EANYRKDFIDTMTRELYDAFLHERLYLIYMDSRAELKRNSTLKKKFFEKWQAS
T2 sequence (looked up) 2: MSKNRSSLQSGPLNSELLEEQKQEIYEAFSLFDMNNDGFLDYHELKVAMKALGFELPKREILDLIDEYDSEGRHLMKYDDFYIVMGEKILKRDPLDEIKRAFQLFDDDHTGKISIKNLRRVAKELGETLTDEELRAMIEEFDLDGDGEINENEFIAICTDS

T3: GST-Sac3 723-805 / Cdc31 complex (yeast, UniProt P46674 723-805; P06704 1-161)
T3 sequence (looked up) 1: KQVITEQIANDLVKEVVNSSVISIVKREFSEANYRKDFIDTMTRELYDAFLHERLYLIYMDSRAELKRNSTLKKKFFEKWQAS
T3 sequence (looked up) 2: T2 sequence (looked up) 2

B1: Sgf11-(1-33), released from GST (domain or fragment, S. cerevisiae, UniProt Q03067 1-33, looked up)
chain: MTEETITIDSISNGILNNLLTTLIQDIVARETT
B2: Sus1 (natural protein, yeast, UniProt Q6WNK7 1-96, looked up)
chain: MTMDTAQLKSQIQQYLVESGNYELISNELKARLLQEGWVDKVKDLTKSEMNINESTNFTQILSTVEPKALEMVSDSTRETVLKQIREFLEEIVDTQ
B3: Sgf11-(7-33), released from GST (domain or fragment, S. cerevisiae, UniProt Q03067 7-33, looked up)
chain: TIDSISNGILNNLLTTLIQDIVARETT

Legend:
Sus1 [1] = target: B2; assay: crystal structure
[2] = target: T1, Sgf11 full-length, released from GST; assay: SEC
[3] = target: T2, GST-Sac3 753-805 / Cdc31 complex; assay: pull-down
[4] = target: T3, GST-Sac3 723-805 / Cdc31 complex; assay: pull-down
Sus1 [5] = target: B2; assay: crystal structure; remark: listed apart in the source

Binder: B1
binding result (Sus1 [1]): binds

Binder: B2
binding result [2]: binds | binding result [3]: binds | binding result [4]: binds

Binder: B3
binding result (Sus1 [5]): binds
